The results in this text go back to PMC4329988.

This assay deals with phosphatidyl inositol 5-phosphate 4-kinase 2β subunit (PI5P4K2β), C-terminal 3xFLAG and two 6xHis tags (chicken (endogenous in DT40)). Put plainly: affinity purification with mass spectrometry; SILAC-iPAC: lysates of JPR3 cells (tagged PI5P4K2β) and tag-less wild-type DT40 cells, differentially SILAC labelled (K6R6 or K0R0, reciprocal labellings), mixed 1:1; captured in parallel on EZview ANTI-FLAG M2 Affinity Gel and TALON Metal Affinity Resin for 1 h; lysis buffer 1x PBS pH 7.4, 1% Triton X-100; eluted with 3xFLAG peptide or 150 mM imidazole; LC-MS/MS, MaxQuant ratios.

B1: phosphatidyl inositol 5-phosphate 4-kinase 2α subunit (PI5P4K2α) (natural protein)
chain: MAAPGTVASVMASKTKTKKKHFVVQKVKLFRASDPLLSVLMWGVNHSINELSHVQIPVMLMPDDFKAYSKIKVDNHLFNKENMPSHFKFKEYCPMVFRNLRERFGIDDQDFQNSLTRSAPLANDSQARSGARFHTSYDKRYIIKTITSEDVAEMHNILKKYHQFIVECHGNTLLPQFLGMYRLTVDGVEIYMIVTRNVFSHRLSVYRKYDLKGSTVAREASDKEKAKELPTFKDNDFINDGQKIHIDENNKRMFLEKLKKDVEFLAQLKLMDYSLLVGIHDVERAEQEEVECEENDGEDEGESDGTHPIGTPPDSPGNTLNSSLPLAPGEFDPAIDVYGIKSHESAPRKEVYFMAIIDILTHYDAKKKAAHAAKTVKHGAGAEISTVNPEQYSKRFLDFIANILT
As for B1, the ratio of PI5P4K2β:PI5P4K2α in the pull-down amounted to 1.28.
